How the values were obtained:
[1] = test system: Chinese Hamster Ovary CHO-K1 (CCL-61) host cell; assay: Bio-Layer Interferometry (Octet) analysis of denosumab expression in supernatants of cell pools selected with GS markers; assay type: cell-based; conditions: 50 μM MSX; for pools expressed detectable denosumab (>0.125 ug/mL): Day 20, among 300 seeded pools in 96-well plates, GS used as selectable marker; for median expression value of denosumab of positive pools: Day 20, positive pools (>0.125 ug/mL), Octet ProA biosensor
Procedure: Vector design: Nearly all selectable marker currently used in GS system is Cricetulus griseus-derived GS.
(§1) After random integration, GS expression in each individual cell was evaluated by monitoring UnaG level using flow cytometry. Denosumab here served as the secreted reporter for assessing titers using selectable glutamine synthetase markers from different species. The vectors differed from one another by the GS-coding sequences, which were derived from Chinese hamster (Cricetulus griseus), koala (Phascolarctos cinerecus), vesper bat (Pipistrellus kuhlii), gerbil (Meriones unguiculatus), ostrich (Struthio camelus australis), junglefowl (Gallus gallus), pigeon (Columbia Livia), and snake (Pseudonaja textilis), respectively.
(§2) Electroporation and cell screening: Expression vectors described above were first linearized by the restriction endonuclease Pvul (there was one Pvul site in the ampicillin resistant gene). Then linearized vectors were introduced into the host cell using cell electroporator (Lonza Nuleofector 2b). The host cell was derived from ATCC wild-type Chinese Hamster Ovary CHO-K1 (CCL-61) and adapted to serum-free suspension culture at Shanghai ZhenGe Biotech Co. Ltd. 24 hours post electroporation, cell pools were plated into culture flasks or 96-well plates (approximately 1, 200 cells/well, 300 wells per condition) in the absence of or presence of MSX (50 μM).

[2] = test system: Chinese Hamster Ovary CHO-K1 (CCL-61) host cell; assay: Flow cytometry analysis of GS expression via UnaG fluorescence in electroporated cell pools; assay type: cell-based; conditions: about 3 weeks post-seeding, MSX selection, FIGS. 3A-3B
Excerpt: Vector design: Nearly all selectable marker currently used in GS system is Cricetulus griseus-derived GS. To investigate whether the GS from other species further improve titer or screening efficiency, a set of vectors were designed as described below: • a sequence coding for an eel green fluorescent protein UnaG, a 2A self-cleaving peptide and a glutamine synthetase, placed under the control of the SV40 promoter; • two expression cassettes, in which the sequences coding for the heavy chain and light chain of a human anti-RANKL antibody denosumab were placed under the control of CMV promoters, respectively; • a sequence coding for a protein conferring resistance to ampicillin, for use in prokaryotic cells; and • a prokaryotic origin of replication.
as §1, with “The 2A self-cleaving peptide allowed relatively equal molar expression of the two products separated by it, namely, the green fluorescent protein UnaG and glutamine synthetase. After” for “After”
as §2
Flow cytometry analysis of GS expression: About 3 weeks post-seeding, cell pools electroporated with GS gene from indicated species were analyzed using Attune NxT flow cytometer (FIGS. 3A-3C). […] As shown, when the GS from Chinese Hamster was used as the selectable marker, most tested cells (>98%) remained UnaG “negative” in the presence of the MSX, indicating low selection efficiency.

Row | Molecule | pools expressed detectable denosumab (>0.125 ug/mL) [1] | median expression value of denosumab of positive pools [1] | UnaG expression of cells (selection efficiency) [2]
1 | pigeon GS: Columbia Livia glutamine synthetase, SEQ ID NO: 5 (nucleotide SEQ ID NO: 14), used as selectable marker (protein, listed as Columbia livia, pigeon GS) MALLRSVQCLLTYRASSYRLPALGGFVNLLQHSGGDRSATAACTRNPLVRSAAMATSASSHLSKAIKHMYMKLPQGDKVQAMYIWIDGTGEHLRCKTRTLDHEPKSLEDLPEWNFDGSSTFQSEGSNSDMYLRPAAMFRDPFRKDPNKLVLCEVFKYNRQSAETNLRHTCRRIMDMVSNQHPWFGMEQEYTLLGTDGHPFGWPSNGFPGPQGPYYCGVGADKAYGRDIVEAHYRACLYAGVKIGGTNAEVMPAQWEFQVGPCEGIEMGDHLWIARFILHRVCEDFGVIVSFDPKPIPGNWNGAGCHTNFSTKEMREDGGLKHIEEAIEKLSKRHQYHIRAYDPKGGLDNARRLTGFHETSNIHEFSAGVANRGASIRIPRSVGHEKRGYFEDRRPSANCDPYAVTEALVRTCLLNETGDEPFEYKN | 52.0% | 2.27 µg/mL | significant amounts of cells showed positive UnaG expression
2 | snake GS: Pseudonaja textilis glutamine synthetase, SEQ ID NO: 3 (nucleotide SEQ ID NO: 12), used as selectable marker (protein, listed as Pseudonaja textilis, Snake GS) MATSASSHLSKTIKQMYMKLPQGDKVQAMYIWIDGTGEFLRCKTRTLEREPKNVEDLPEWNFDGSSTFQSEGSNSDMYLVPSAMFRDPFRKDPNKLVLCEVLKYNRKPAETNLRSTCKRIMDMVSNQNPWFGMEQEYTLLGTDGHPFGWPSNGFPGPQGPYYCGVGADKAYGRDVVEAHYRACLYAGVNIGGTNAEVMPAQWEFQVGPCEGVDMGDHLWIARFILHRVCEDFGVIVSFDPKPIPGNWNGAGCHTNFSTKNMREEGGLKQIEDAIEKLGKRHQYHIRAYDPKGGLDNARRLTGFHETSNIHEFSAGVANRGASIRIPRNVGQVKKGYFEDRRPSANCDPYAVTEALVRTCLLNETGDEPFEYKN | 38.0% | 1.75 µg/mL | significant amounts of cells showed positive UnaG expression
3 | junglefowl GS: Gallus gallus glutamine synthetase, SEQ ID NO: 6 (nucleotide SEQ ID NO: 15), used as selectable marker (protein, listed as Gallus gallus, Junglefowl GS) MLRSLQCLLAYRVGSLPLRSWGHRLATTAHARTALASSAAMATSASSHLSKAIKHMYMKLPQGEKVQAMYIWIDGTGEHLRCKTRTLDHEPKSLEDLPEWNFDGSSTFQAEGSNSDMYLRPAAMFRDPFRKDPNKLVLCEVFKYNRQSADTNLRHTCRRIMDMVSNQHPWFGMEQEYTLLGTDGHPFGWPSNGFPGPQGPYYCGVGADKAYGRDIVEAHYRACLYAGVKIGGTNAEVMPAQWEFQVGPCEGIEMGDHLWIARFILHRVCEDFGVIVSFDPKPIPGNWNGAGCHTNFSTKNMREDGGLKHIEEAIEKLSKRHQYHIRAYDPKGGLDNARRLTGFHETSSIHEFSAGVANRGASIRIPRNVGHEKKGYFEDRRPSANCDPYAVTEALVRTCLLNETGDEPFEYKN | 73.6% | 2.51 µg/mL | significant amounts of cells showed positive UnaG expression
4 | vesper bat GS: Pipistrellus kuhlii glutamine synthetase, SEQ ID NO: 8 (nucleotide SEQ ID NO: 17), used as selectable marker (protein, listed as Pipistrellus kuhlii, Vesper bat GS) MSTSASSQLNKGIKQMYMSLPQGDKVLAMYIWIDGTGEGLRCKTRTLDSEPKSIDELPEWNFDGSSTMQSEGSNSDMYLIPVAMFRDPFRKDPNKLIFCEVFKYNHKPAETNLRYTCKRIMDMVSNQHPWFGMEQEYTLMGTDGHPFGWPSNGFPGPQGPYYCGVGADRAYGRDIVEAHYRACLYAGIKIGGTNAEVMPAQWEFQIGPCEGIEMGDHLWVARFILHRVCEDFGVIATFDPKPIPGNWNGAGCHTNFSTKAMREENGLKYIEESIERLSKRHQYHIRAYDPKGGQDNARRLTGFHETSNINDFSAGVANRSASIRIPRAVGQEKKGYFEDRRPSANCDPFAVTEALIRTCLLNETGDEPFQYKN | 94.0% | 3.39 µg/mL | significant amounts of cells showed positive UnaG expression
5 | gerbil GS: Meriones unguiculatus glutamine synthetase, SEQ ID NO: 7 (nucleotide SEQ ID NO: 16), used as selectable marker (protein, listed as Meriones unguiculatus, Gerbil GS) MATSASSQLNKGIKQTYLALPQGEKVQAMYIWVDGTGEGLRCKTRTLDCEPKSVEELPEWNFDGSSTFQSEGSNSDMYLTPVAMFRDPFRKEPNKLVFCEVFKYNRKPAETNLRHSCKRIMEMVSNQRPWFGMEQEYTLMGTDGHPFGWPSNGFPGPQGPYYCGVGADKAYGRDIVEAHYRACLYAGVKIAGTNAEVMPAQWEFQIGPCEGVRMGDHLWVARFILHRVCEDFGVIATFDPKPIPGNWNGAGCHTNFSTKAMREENGLKFIEEAIEKLSKRHQYHIRAYDPKGGLDNARRLTGFHETSNINDFSAGVANRSASIRIPRTVGQEKKGYLEDRRPSANCDPYAVTEALVRTCLLNETGDEPFQYKN | 63.6% | 2.67 µg/mL | significant amounts of cells showed positive UnaG expression

— US20260226524A1, “GLUTAMINE SYNTHETASE MARKER FOR RECOMBINANT EXPRESSION” (priority 2023, published 2026)
